Key:
[1] = target: human CD40 expressed on cells (CD40 reporter cells, HEK Blue CD40L cells, primary B cells, tumour APCs) (human, UniProt P25942 21-277); test: cell-based or functional assay
[2] = target: T1, human CEACAM5 expressed on cells (CHO-CEACAM5 transfectants; MKN45 and LS174T tumour cells) (human, UniProt P06731 35-685); test: flow cytometry on CHO-CEACAM5 cells, fluorochrome-conjugated anti-human IgG, MFI
T1 construct: whole, on cells; also called CEACAM5 on cells; hCEA
T1 sequence (looked up): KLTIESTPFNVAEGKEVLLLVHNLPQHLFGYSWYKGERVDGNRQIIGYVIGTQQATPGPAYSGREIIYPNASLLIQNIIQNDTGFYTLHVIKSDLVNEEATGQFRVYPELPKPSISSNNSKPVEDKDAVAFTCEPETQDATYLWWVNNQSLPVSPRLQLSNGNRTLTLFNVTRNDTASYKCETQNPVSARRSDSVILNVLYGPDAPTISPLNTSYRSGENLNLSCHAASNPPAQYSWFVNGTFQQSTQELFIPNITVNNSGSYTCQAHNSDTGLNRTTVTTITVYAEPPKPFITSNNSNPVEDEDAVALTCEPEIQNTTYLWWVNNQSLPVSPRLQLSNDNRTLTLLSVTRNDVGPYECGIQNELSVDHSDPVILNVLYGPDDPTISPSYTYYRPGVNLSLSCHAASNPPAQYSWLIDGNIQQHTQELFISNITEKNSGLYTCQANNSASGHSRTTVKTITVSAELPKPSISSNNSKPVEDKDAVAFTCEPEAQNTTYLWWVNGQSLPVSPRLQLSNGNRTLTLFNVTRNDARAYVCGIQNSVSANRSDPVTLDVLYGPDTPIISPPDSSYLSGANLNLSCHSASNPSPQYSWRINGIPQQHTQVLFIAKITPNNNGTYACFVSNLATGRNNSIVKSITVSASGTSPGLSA
Text: (§1) The human CEACAM5 and CEACAM1 genes were cloned into pcDNA3.1, and the vector was subsequently stably transfected into CHO cells. […] Binding of the antibodies was detected using fluorochrome-conjugated anti-human IgG and analyzed using flow cytometry.

[3] = target: T2, human CEACAM5, recombinant (R&D Systems #4128-CM-050) (human, UniProt P06731 35-685); test: dual-target ELISA: hCEACAM-5 coated, bsAb titrated, detected with biotinylated hCD40-muIg and streptavidin-HRP, luminescence; signal needs both targets bound
T2 construct: Bought; coated in ELISA and used as monomeric analyte in Octet; also called hCEACAM-5; Human CEACAM5-His; not shown: His tag
T2 sequence (looked up): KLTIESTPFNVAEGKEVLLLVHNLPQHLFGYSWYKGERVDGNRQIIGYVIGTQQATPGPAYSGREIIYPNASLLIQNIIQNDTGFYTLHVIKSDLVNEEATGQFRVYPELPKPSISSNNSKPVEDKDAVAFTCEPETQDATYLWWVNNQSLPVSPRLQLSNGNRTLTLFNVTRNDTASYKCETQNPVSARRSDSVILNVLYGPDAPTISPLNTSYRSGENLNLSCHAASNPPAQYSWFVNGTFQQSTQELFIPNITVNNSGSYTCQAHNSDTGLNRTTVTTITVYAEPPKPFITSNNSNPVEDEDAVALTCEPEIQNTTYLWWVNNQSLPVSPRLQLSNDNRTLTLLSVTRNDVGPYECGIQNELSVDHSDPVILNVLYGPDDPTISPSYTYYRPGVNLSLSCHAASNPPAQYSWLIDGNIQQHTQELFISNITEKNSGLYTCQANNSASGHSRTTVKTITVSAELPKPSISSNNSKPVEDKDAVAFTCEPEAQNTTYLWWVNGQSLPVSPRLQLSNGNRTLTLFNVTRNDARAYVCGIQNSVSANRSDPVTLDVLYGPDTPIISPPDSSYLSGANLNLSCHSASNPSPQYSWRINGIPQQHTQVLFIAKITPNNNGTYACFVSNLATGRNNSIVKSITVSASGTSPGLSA

[4] = target: T3, CEACAM-8, recombinant (R&D Systems #9639-CM-050) (UniProt P31997 35-320); test: ELISA, antigen coated at 0.5 µg/mL, bsAb titrated, anti-human kappa-HRP, luminescence
T3 sequence (looked up): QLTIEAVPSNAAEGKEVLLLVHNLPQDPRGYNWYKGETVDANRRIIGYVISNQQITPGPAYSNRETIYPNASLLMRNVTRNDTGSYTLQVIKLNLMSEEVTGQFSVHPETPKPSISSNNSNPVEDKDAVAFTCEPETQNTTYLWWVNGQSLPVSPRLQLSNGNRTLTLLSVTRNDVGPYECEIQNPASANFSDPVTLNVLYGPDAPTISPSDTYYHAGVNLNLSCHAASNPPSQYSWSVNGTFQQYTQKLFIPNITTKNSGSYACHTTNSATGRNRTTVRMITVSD

[5] = target: T4, human CEACAM6, recombinant (R&D Systems #3934-CM-050) (human, UniProt P40199 35-320); test: as above
T4 construct: also called hCEACAM-6
T4 sequence (looked up): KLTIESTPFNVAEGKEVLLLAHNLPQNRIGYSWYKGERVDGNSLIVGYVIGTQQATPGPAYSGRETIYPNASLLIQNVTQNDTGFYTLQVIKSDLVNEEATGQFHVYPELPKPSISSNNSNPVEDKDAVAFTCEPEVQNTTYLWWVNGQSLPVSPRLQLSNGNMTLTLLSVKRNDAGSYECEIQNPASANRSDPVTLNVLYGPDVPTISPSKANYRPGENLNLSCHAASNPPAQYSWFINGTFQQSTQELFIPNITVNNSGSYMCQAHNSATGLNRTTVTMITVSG

[6] = target: T2, human CEACAM5, recombinant (R&D Systems …); test: as above
[7] = target: T5, biotinylated human CEACAM5-His (Acro Biosystems #CE5-H82E0) (human, UniProt P06731 35-685, biotinylated (site not stated)); test: Octet BLI, captured CEACAM5-biotin, bsAb in solution, 1:1 fit
T5 construct: also called CEACAM5-biotin; captured human CEACAM5-biotin; not shown: His tag
T5 sequence (looked up): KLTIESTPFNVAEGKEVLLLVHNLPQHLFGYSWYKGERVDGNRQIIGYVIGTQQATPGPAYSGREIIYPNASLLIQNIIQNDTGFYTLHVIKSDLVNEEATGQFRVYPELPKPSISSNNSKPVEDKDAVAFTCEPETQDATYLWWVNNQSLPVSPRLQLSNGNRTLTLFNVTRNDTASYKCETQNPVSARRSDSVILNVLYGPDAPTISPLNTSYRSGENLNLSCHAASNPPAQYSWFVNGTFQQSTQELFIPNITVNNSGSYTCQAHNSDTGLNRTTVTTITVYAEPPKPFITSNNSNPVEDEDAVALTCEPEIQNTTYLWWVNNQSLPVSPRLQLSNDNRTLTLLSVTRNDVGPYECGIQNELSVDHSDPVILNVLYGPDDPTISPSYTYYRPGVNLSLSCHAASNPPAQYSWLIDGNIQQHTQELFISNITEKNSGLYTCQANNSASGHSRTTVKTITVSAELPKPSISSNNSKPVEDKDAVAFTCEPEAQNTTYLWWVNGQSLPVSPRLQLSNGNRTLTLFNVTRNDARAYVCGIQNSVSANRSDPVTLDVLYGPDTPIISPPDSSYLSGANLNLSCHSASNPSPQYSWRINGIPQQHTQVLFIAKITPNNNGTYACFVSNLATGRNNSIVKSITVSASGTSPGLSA
Method: Kinetic measurements were performed in the Octet RED96 platform using several different setups. […] Monomeric human CD40-His-Avi tag (Acro Biosystems #CD0-H5228), monomeric Human CEACAM5-His (R&D Systems #4128-CM-050) or monomeric Cynomolgus CEACAM5-His (Sino Biological #90891-C08H) were ½ serially diluted in 1× kinetic buffer (Sartorius) starting at 500 nM or 100 nM. […] Binding kinetics was studied in 1× kinetic buffer where association was allowed for 100 sec, 300 sec or 600 sec followed by dissociation for 100 sec, 300 sec or 3600 sec. Sensor tips were regenerated with 10 mM Glycine pH 1.7. Data generated were referenced by subtracting blank or parallel buffer blank, the baseline was aligned to the y-axis, inter-step correction by alignment against dissociation was performed and the data was smoothed by Savitzky-Golay filter in the data analysis software (v9.0.0.14). The processed data was fitted using a 1:1 Langmuir binding model with R² or X² as a measurement of fitting accuracy.
Association was measured for 100 sec and dissociation measured for 100 sec.

[8] = target: T6, human CEACAM1 expressed on CHO cells (human, UniProt P13688 35-526); test: flow cytometry on CHO-CEACAM1 cells, fluorochrome-conjugated anti-human IgG, MFI
T6 construct: whole, on cells; also called CHO-CEACAM1; CEACAM1 on cells
T6 sequence (looked up): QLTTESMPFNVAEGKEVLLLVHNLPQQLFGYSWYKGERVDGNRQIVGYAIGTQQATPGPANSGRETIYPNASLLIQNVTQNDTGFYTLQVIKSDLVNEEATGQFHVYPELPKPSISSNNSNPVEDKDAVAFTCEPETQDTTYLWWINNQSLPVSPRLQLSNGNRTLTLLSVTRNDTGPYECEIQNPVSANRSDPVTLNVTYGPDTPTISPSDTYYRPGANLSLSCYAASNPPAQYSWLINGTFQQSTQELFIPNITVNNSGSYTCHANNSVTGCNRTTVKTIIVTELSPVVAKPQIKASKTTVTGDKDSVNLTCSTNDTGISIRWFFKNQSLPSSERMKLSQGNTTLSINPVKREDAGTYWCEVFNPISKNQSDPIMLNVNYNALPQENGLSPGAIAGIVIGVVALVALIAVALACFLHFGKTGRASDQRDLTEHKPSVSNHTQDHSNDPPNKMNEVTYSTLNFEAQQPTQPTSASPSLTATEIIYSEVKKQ
Text: as §1

Sequence of human CD40 expressed on cells (CD40 reporter cells, HEK Blue CD40L cells, primary B cells, tumour APCs) (P25942 21-277): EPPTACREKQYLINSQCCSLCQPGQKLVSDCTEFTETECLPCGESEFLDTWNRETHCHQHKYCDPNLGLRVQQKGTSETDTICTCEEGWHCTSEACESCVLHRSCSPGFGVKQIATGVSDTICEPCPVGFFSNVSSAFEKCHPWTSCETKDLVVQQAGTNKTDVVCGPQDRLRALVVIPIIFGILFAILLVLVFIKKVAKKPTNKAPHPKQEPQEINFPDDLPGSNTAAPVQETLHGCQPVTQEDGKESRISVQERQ

EC50 of SEAP release, HEK Blue CD40L reporter cells, bsAb crosslinked to CHO-CEACAM5 cells, 0 Raji sink cells/well [1]: 0.03 nM
EC50 of SEAP release, same assay, 10 000 Raji sink cells/well [1]: 0.06 nM
EC50 of SEAP release, same assay, 30 000 Raji sink cells/well [1]: 0.13 nM
EC50 of SEAP release, same assay, 90 000 Raji sink cells/well [1]: 0.36 nM
EC50 (read off the curve) [2]: ~3 nM
EC50 (read off the curve) [3]: ~0.6 nM
binding result [4]: no binding (tested: 100 nM)
binding result [5]: no binding (tested: 100 nM)
EC50 (read off the curve) [6]: ~0.5 nM
Kd [7]: < 0.001 nM
koff [7]: < 1e-07 s⁻¹
kon [7]: 47000 M⁻¹ s⁻¹
binding result [8]: no binding (tested: about 400 nM)
B1: Multi41 (bispecific antibody)
heavy 1: not shown
light: DIQMTQSPSSLSASVGDRVTITCRASQSISSYLNWYQEKPGKAPKLLIYAASSLQSGVPSRFSGSGSGTDFTLTISSLQPEDFATYYCQQWRSHLFTFGQGTKLEIKRTVAAPSVFIFPPSDEQLKSGTASVVCYLNNFYPREAKVQWKVDNALQSGNSQESVTEQDSKDSTYSLWSTLTLSKADYEKHKVYACEVTHQGLSSPVTKSFNRGEC
heavy 2: EVQLLESGGGLVQPGGSLRLSCAASGFTFSTYGMHWVREAPGKGLEWLSYISGGSSYIFYADSVKGRFTISRDNSKNTLYLQMNSLRAEDTAVYYCARILRGGSGMDLWGQGTLVTVSSASTKGPSVFPLAPSSKSTSGGTAALGCLVKDYFPEPVTVSWNSGALTSGVHTFPAVLQSSGLYSLTSVVEVPSSSLGTQTYICNVNHKPSNTKVDKKVEPKSC
notes: Optimised RUBY format, CEACAM5xCD40; copies: 2 + 2 + 2

From US20260146107A1 (ALLIGATOR BIOSCIENCE, published 2026)
